# Data taken from article PMC10046281, “MoS2-Carbon Nanodots as a New Electrochemiluminescence Platform for Breast Cancer Biomarker Detection”.
# Molecular target: HER2 (recombinant human HER2 standard) (human, UniProt P04626 23-652)
# Assay: electrochemiluminescence aptasensor; aptamer immobilized on MoS2-NS, BSA blocked; [Ru(bpy)3]2+/CD read-out; LOD 1.84 fg/mL (not a Kd); HER2 diluted in 10 mM phosphate buffer, 0.4 M NaCl, pH 7.4; BSA-blocked electrode; incubation temperature not given in the material
# Conditions: protein: recombinant
binder,measurement,value
"Apt-SH (HER2 aptamer) (ssDNA, 5'-SH-(CH2)6 thiol) DNA: AACCGCCCAAATCCCTAAGAGTCTGCACTTGTCATTTTGTATATGTATTTGGTTTTTGGCTCTCACAGACACACTACACACGCACA",binding result,binds
